Biological target: Tolypothrix sp. PCC 7601 Orange Carotenoid Protein 1 (OCP1) (Tolypothrix sp. PCC 7601)
Assay: crystal structure

stoichiometry N: 2
Substance: Tolypothrix sp. PCC 7601 Orange Carotenoid Protein 1 (OCP1) (natural protein)

From paper PMC6943196
